Assay results published in PMC3794954, “An Improved SELEX-Seq Strategy for Characterizing DNA-Binding Specificity of Transcription Factor: NF-κB as an Example”.

Legend:
[1] = molecular target: T1, NF-kB p50 (UniProt P19838 1-433); test: EMSA; no polydI-dC; 1x DBB (from 5x): 10 mM Tris-HCl pH 7.5, 50 mM NaCl, 0.5 mM EDTA, 3 mM MgCl2, 1% glycerol, 0.5 mg/ml BSA, 0.05% NP-40, 0.01 mM DTT; room temperature 60 min; 6%; conditions: protein: commercial; chain copies: 2; label: 5' FAM on reverse strand (primer P-R); blunt
T1 sequence (P19838 1-433): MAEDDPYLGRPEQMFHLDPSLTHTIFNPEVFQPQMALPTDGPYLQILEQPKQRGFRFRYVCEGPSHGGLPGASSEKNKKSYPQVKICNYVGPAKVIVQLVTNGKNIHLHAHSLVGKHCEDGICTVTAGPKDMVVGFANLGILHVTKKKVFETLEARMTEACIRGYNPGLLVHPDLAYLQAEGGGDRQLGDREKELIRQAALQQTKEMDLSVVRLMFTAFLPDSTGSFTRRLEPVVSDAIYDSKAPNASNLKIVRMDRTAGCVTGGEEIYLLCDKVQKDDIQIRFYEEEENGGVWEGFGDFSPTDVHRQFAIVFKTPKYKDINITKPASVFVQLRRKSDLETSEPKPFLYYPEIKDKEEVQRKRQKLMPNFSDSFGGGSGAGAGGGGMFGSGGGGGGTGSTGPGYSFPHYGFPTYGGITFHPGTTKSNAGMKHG

[2] = molecular target: T1, NF-kB p50; test: EMSA; higher affinity than the 3' T probe; 1x DBB (from 5x): 10 mM Tris-HCl pH 7.5, 50 mM NaCl, 0.5 mM EDTA, 3 mM MgCl2, 1% glycerol, 0.5 mg/ml BSA, 0.05% NP-40, 0.01 mM DTT; room temperature 60 min; 6%; conditions: protein: commercial; chain copies: 2; label: biotin at ends; blunt

Row | Binder | binding result [1] | binding result [2]
1 | positive dsDNA (dsDNA) DNA 1: ACTGTCTGAGGAGTGTCGTGTGCTAAAGGGACTTTCCAAAACGACTCAGCACCACTTCACTCAC DNA 2: GTGAGTGAAGTGGTGCTGAGTCGTTTTGGAAAGTCCCTTTAGCACACGACACTCCTCAGACAGT | binds | 
2 | probe b (GGGACTTTCCC) (dsDNA) DNA 1: AGTTGAGGGGACTTTCCCAGGC DNA 2: GCCTGGGAAAGTCCCCTCAACT |  | binds
